The target of this test is T1, Kv2.1 surface clusters (Rattus norvegicus, UniProt P15387).
T1 construct: expressed in transfected cells; host or cells: primary rat cortical neurons (E16-17 Sprague-Dawley), Lipofectamine 2000
T1 sequence (P15387 1-857): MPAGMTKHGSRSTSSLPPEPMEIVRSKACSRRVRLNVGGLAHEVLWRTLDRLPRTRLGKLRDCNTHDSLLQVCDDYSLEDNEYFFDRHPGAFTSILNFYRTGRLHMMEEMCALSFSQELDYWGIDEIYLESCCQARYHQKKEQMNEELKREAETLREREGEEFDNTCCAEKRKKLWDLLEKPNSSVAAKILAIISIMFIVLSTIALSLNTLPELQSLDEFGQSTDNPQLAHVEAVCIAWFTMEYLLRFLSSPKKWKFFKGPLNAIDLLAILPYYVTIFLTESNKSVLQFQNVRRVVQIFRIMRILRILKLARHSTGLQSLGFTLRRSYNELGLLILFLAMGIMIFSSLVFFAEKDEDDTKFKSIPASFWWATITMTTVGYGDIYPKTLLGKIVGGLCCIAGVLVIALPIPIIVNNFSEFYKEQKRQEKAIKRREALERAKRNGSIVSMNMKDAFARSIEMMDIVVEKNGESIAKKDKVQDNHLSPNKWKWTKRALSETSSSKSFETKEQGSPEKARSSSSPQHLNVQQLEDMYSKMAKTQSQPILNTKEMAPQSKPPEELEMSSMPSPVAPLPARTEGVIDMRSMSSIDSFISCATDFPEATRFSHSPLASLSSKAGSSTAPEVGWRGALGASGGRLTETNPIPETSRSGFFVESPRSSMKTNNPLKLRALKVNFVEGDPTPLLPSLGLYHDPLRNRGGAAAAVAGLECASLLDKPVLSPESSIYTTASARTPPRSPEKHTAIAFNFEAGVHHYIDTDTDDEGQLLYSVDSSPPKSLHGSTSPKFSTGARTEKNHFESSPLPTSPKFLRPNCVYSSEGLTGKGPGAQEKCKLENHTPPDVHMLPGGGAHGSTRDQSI
Kind of test: Kv2.1 surface cluster density in live Kv2.1-GFP-transfected cortical neurons treated with TAT-linked peptides. Format: cell-based. As to the method:
In vitro experiments utilized primary cortical neuronal cultures prepared from embryonic day 16-17 Sprague-Dawley rats of either sex in a protocol described previously (McCord et al., J Physiol (Lond). 592: 3511-3521, 2014). Timed-pregnant rats (Charles River Laboratories, Wilmington, Mass.) were sacrificed by CO2 inhalation. Embryonic cortices were dissociated with trypsin (0.6 mg/mL) and cells plated in sterile 6-well plates on poly-L-ornithine-coated glass coverslips at a density of 670,000 cells per well. Cytosine arabinoside (1-2 μM) was utilized to inhibit non-neuronal proliferation on day 14 in vitro (DIV); cultures were utilized at 21-25 DIV.
; Invitrogen, Carlsbad, Calif.). […]; Thermo Fisher Scientific, Waltham, Mass.). […]. Cultures were utilized 18-24 hours following transfection. cDNA amounts for each transfection experiment are described below for each figure. FIG. 1: 0.375 μg/well Kv2.1-GFP plasmid, 0.495 μg/well pcDNA3 vector plasmid, and 0.63 μg/well of either DP-1 or Sc-1, or Kv2.2 CT-expressing plasmid. FIGS. 2, 8, 9, 10, 12: 0.375 μg/well Kv2.1-GFP plasmid, 0.15 μg/well tdTomato plasmid (from Gerhart Ryffel; Addgene plasmid #30530), and 0.975 μg/well pcDNA3 vector plasmid.
To analyze Kv2.1 distribution in live primary cortical neurons, cells were transfected with both a tdTomato construct and a GFP-tagged Kv2.1 construct (O'Connell, et al., J Neurosci. 26: 9609-9618, 2006) and imaged on a Nikon A1+ confocal microscope (Nikon, Tokyo, Japan). Cells were chosen at random by looking only at the tdTomato signal (561 nm), in order to avoid bias. At least three separate culture dates were used per experiment and three coverslips were transfected per condition each time. For these experiments, “n” refers to the total number of cells imaged. Five to 15 optical sections (0.5 μm) capturing the cell surface were obtained of single cells at 60× magnification (Schulien et al., J Physiol (Lond). 594: 2647-2659, 2016), creating a maximum-intensity projection (MAX-IP) of Kv2.1-GFP distribution. To analyze Kv2.1 distribution in the cerebral cortex of fixed brain slices, 51-54 image fields were obtained at 60× magnification across 18 sections from three fixed mouse brains per treatment (total of 6 animals). Image fields were captured by first focusing on an area of superficial cortex closest to the cover glass. Next, 24 optical sections (0.5 μm) were obtained moving deeper into the tissue in order to produce a 12 μm maximum-intensity projection for analysis of Kv2.1 distribution. Laser power, HV (gain), offset, pinhole size, and all camera parameters were kept identical between all samples in a given experiment. Nikon Instruments Software Advanced Research (NIS-Elements AR) was utilized to analyze GFP-tagged Kv2.1 channel cluster distribution. For live images of transfected neurons, object count parameters were customized to define a Kv2.1 cluster as an area of high intensity GFP fluorescence (compared to background), measuring 0.05 μm^2 or larger (Schulien et al., J Physiol (Lond). 594: 2647-2659, 2016). Kv2.1 cluster density was calculated by normalizing the number of Kv2.1 clusters counted to the somatic area of each neuron (#Kv2.1 clusters/μm^2). Due to high variability in GFP-Kv2.1 expression between individual neurons, intensity thresholding required cell-specific local-background subtraction. In each neuron analyzed, two populations on Kv2.1-GFP expression were first noted—(a) highly localized signals of clustered Kv2.1 channels, and (b) diffuse background staining that represents freely-dispersed, conducting Kv2.1 channels on the plasma membrane. A small region of interest (ROI) within region (b) was set as the background subtraction standard of the image, creating an optimal signal-to-noise ratio for clustered Kv2.1 channels. […]

Setting [1] is: 3 μM peptide, two-hour treatment, mean±SEM (FIG. 2B).
[2] abbreviates: 10 μM peptide, two-hour treatment, mean±SEM (FIG. 2B).

As for “YGRKKRRQRRRDFSSIST [TAT-Sc-2, TAT-linked scramble control peptide]”, the “mean Kv2.1 surface cluster density” value was 0.15±0.01 #Kv2.1 clusters/μm^2 of neuronal soma under setting [1] and 0.16±0.02 #Kv2.1 clusters/μm^2 of neuronal soma under setting [2].
For the sequence “YGRKKRRQRRRSIDSFTS [TAT-DP-2, TAT-linked declustering peptide 2]”, the “mean Kv2.1 surface cluster density” value is listed as 0.07±0.02 #Kv2.1 clusters/μm^2 of neuronal soma under setting [1]; 0.08±0.01 #Kv2.1 clusters/μm^2 of neuronal soma under setting [2]; 0.06±0.01 #Kv2.1 clusters/μm^2 of neuronal soma (10 μM, 2 h after initiation of treatment, mean+/-SEM (FIG. 9)); 0.09±0.01 #Kv2.1 clusters/μm^2 of neuronal soma (10 μM, 24 h after initiation of treatment, peptide removed after two hours, mean+/-SEM (FIG. 9)). The “time-course of Kv2.1 surface cluster dispersal” value (10 μM, before, 60 and 120 minutes post-treatment (FIG. 8)) is on record as “time-dependent”. The “concentrations at which effective as in vitro declustering tool” value (hypothesized from the 3 μM and 10 μM results) lay in the range of 3 to 10 µM.

For the origin of these results see patent US11673916B2, “Neuroprotective peptides and methods of their use” (University of Pittsburgh—Of the Commonwealth System of …, priority 2020, dated 2023).
